“And” between values parts separate entries of the source, which are not always exact repeats. Equal entries are not always repeated.

The nature of data set [1]: Heat resistance of phosphite dehydrogenase protein (specific activity vs temperature, FIG. 3). Type of data set: biochemical. Particulars: 0.2 mg/mL in 50 mM MOPS pH 7.4, kept at 10° C. to 60° C.; 1 mM NAD+, 1 mM phosphorous acid. As for the experimental part: After the ultracentrifugation, a supernatant was collected to be used as a crude extract for measuring phosphite dehydrogenase activity. A total of 1000 μL of a reaction solution was prepared which contained the crude extract (protein amount: 10 μg), NAD^+ (1 mM), phosphorous acid (1 mM), and a MOPS-KOH buffer (20 mM, pH 7.4). A temperature of the reaction solution was elevated to 45° C., so that a reaction was started. A sample was collected, each in an amount of 100 μL, at predetermined time intervals for a predetermined period of time (0 to 180 minutes), and absorbance (340 nm) of each sample was measured. Phosphite dehydrogenase activity was evaluated in terms of an amount of NADH generated by 1 mg of protein per unit time.
PtxD4506 and PtxDPst, which were purified with use of the HisTrap column in [3. Expression of Phosphite Dehydrogenase Protein Using Escherichia Coli] were examined in terms of heat resistance. The following description discusses how measurement of heat resistance was carried out.
Each of the purified PtxD4506 and PtxDPst was added to 50 mM of a MOPS buffer (pH 7.4) so as to have a final concentration of 0.2 mg/mL. 100 μL of an enzyme solution thus obtained was supplied to a 1.5-mL tube, and 100 μL of mineral oil was added to the enzyme solution in order to prevent evaporation. A temperature of the tube was maintained at 10° C. to 60° C. for 12 hours. […]

Data set [2] can be described thus: Solubility of His-tagged phosphite dehydrogenase forcibly expressed in E. coli (supernatant vs sediment, SDS-PAGE). The format is physicochemical, Escherichia coli. The note with it: expressed in E. coli Rosetta2 (DE3), disruption buffer 50 mM Tris-HCl pH 7.4, 50 mM NaCl, 0.1% Tween20, centrifuged 15,000 rpm, CBB. The source says:
By a well-known method, the base sequence of SEQ ID NO: 2 or a phosphite dehydrogenase gene (SEQ ID NO: 4) of P stutzeri WM88 was inserted into a plasmid pET21b (produced by Novagen) (an amino acid sequence of the protein encoded by the base sequence of SEQ ID NO: 4 is shown in SEQ ID NO: 3) to prepare (i) an expression vector of a fusion protein (see “PtxD4506” in FIG. 2) in which the C-terminal of the phosphite dehydrogenase protein of SEQ ID NO: 1 is labeled with a His tag or (ii) an expression vector of a fusion protein (see “PtxDPst” in FIG. 2) in which the C-terminal of the phosphite dehydrogenase protein of P stutzeri WM88 is labeled with a His tag.
A competent cell Rosetta2 (DE3) (produced by Novagen) was transformed by a well-known method with use of each of the expression vectors.
Transformants thus obtained were inoculated on a 200 mL LB culture medium (containing 10 g of polypeptone, 5 g of yeast extract, and 5 g of NaCl per liter of the culture-medium), and were cultured at 37° C. until OD600 reached 0.5. Subsequently, IPTG (isopropyl thiogalactoside) was added to the culture so as to have a concentration of 1 mM. Then, the culture was incubated for another 3 more hours at 28° C.
The culture was centrifuged at 6,000 rpm for 15 minutes, and bacteria, which were sediment, were collected. The bacteria were suspended in a buffer for disruption (50 mM Tris-HCl (pH: 7.4), 50 mM NaCl), and a suspension thus obtained was subjected to an ultrasonic treatment, so that the bacteria were disrupted. Subsequently, Tween20 (Registered Trademark) was added to a resultant solution of the disrupted bacteria so as to have a final concentration of 0.1%, and was left still on ice for 15 minutes. Note that the buffer for disruption containing the disrupted bacteria is indicated as “T” in FIG. 2.
The buffer for disruption containing the disrupted bacteria was centrifuged at 15,000 rpm and 4° C. for 15 minutes. After the centrifugation, a resultant product was divided into a supernatant and sediment. In FIG. 2, the supernatant is indicated as “S” and the sediment is indicated as “I.”
The buffer for disruption (T) containing the disrupted bacteria, the supernatant (S), and the sediment (I) described above were separated by SDS-PAGE. Subsequently, an acrylamide gel was dyed with CBB stain one (produced by Nacalai), and an amount of the phosphite dehydrogenase protein was measured.

Data set [3] can be described thus: Activity of phosphite dehydrogenase protein in the presence of inhibitor (relative OD340). Type of data set: biochemical. Particulars: no inhibitor = 100.0; for relative value of OD340, average: NaCl, average of experiments. The protocol:
PtxD4506 and PtxDPst, which were purified with use of the HisTrap column in [3. […] An experimental method was based on a method described in the literature “Costas et al., Journal of Biological Chemistry, 2001, 276, 17429-17436.” The experimental method is briefly described below.
A reaction solution was prepared by mixing 100 μL of 100 mM MOPS-KOH (pH 7.25), 50 μL of 10 mM NAD, 5 μL of 5 mM phosphite, 50 μL of 40 mM inhibitor of various kinds (arsenite, nitrate, sulfate, or NaCl), 294 μL of H2O, and 1 μL of 0.5 mg/mL protein-containing solution (a PtxD4506-containing solution, a PtxDPst-containing solution, or a liquid which contained no protein (negative control)).
The reaction solution was reacted for 60 minutes. Note that the reaction solution containing the PtxD4506-containing solution was reacted at 45° C., and the reaction solution containing the PtxDPst-containing solution was reacted at 30° C. Subsequently, OD340 was measured. A relative value of OD340 of each sample was calculated relative to 100 of a value of OD340 of the reaction solution containing the liquid which contained no protein (negative control). Note that each experiment was conducted 4 times or more, and an average of relative values obtained in the 4 or 5 experiments was also calculated.

The nature of data set [4]: Reaction kinetic analysis of phosphite dehydrogenase protein (NADH production rate vs NAD+ concentration). The format is biochemical. The note with it: ratio PtxD4506 / PtxDPst. The protocol: PtxD4506 and PtxDPst, which were purified with use of the HisTrap column in [3. Expression of Phosphite Dehydrogenase Protein By Using Escherichia Coli], were compared with each other in terms of reaction rate. The following description discusses how measurement of reaction rates was carried out.
Reaction rates of respective PtxD4506 and PtxDPst were calculated on the basis of (Reaction formula 1) shown in the section [Background Art].
Specifically, in the reaction system of (Reaction formula 1), a production rate of NADH was measured with use of 7.5 μg of each of the fusion proteins PtxD4506 and PtxDPst while a concentration of a substrate (NAD^+) was gradually changed from 0.5 μM to 200 μM. […]
Based on the measured concentration of the substrate (NAD^+) and the measured production rate of NADH, values of Km (μM), Vmax (μmol/min/m), Kcat (min^−1), and Kcat/km were calculated in accordance with a well-known enzyme kinetic method (see, for example, “Fundamental Experiment Method of Proteins and Enzymes (2nd revised edition), Nankodo Co., Ltd.”). Note that the experiment was carried out three times, and values of Km, Vmax, Kcat, and Kcat/km were calculated in each of the experiments. Then, for each of Km, Vmax, Kcat, and Kcat/km, an average of the values calculated in the three experiments was obtained and defined as the value of each of Km, Vmax, Kcat, and Kcat/km. […]

B1: PtxDPst: fusion protein: phosphite dehydrogenase protein of P stutzeri WM88 (SEQ ID NO: 3), C-terminal labeled with a His tag (protein, listed as Pseudomonas stutzeri)
chain: MLPKLVITHRVHDEILQLLAPHCELMTNQTDSTLTREEILRRCRDAQAMMAFMPDRVDADFLQACPELRVVGCALKGFDNFDVDACTARGVWLTFVPDLLTVPTAELAIGLAVGLGRHLRAADAFVRSGEFQGWQPQFYGTGLDNATVGILGMGAIGLAMADRLQGWGATLQYHEAKALDTQTEQRLGLRQVACSELFASSDFILLALPLNADTQHLVNAELLALVRPGALLVNPCRGSVVDEAAVLAALERGQLGGYAADVFEMEDWARADRPRLIDPALLAHPNTLFTPHIGSAVRAVRLEIERCAAQNIIQVLAGARPINAANRLPKAEPAAC
modifications: C-terminal His tag
As to B1, in data set [1], the “temperature at which specific activity is the highest (optimum temperature)” value is “about 35 °C”. For the same molecule, in data set [2], the “fusion protein present in the sediment (I)” value is on record as “approximately 81.6%” and the “fusion protein present in the supernatant (S)” value was “approximately 18.4%”. Further, the “relative value of OD340, average” value in data set [3] was 89.3.

B2: PtxD4506: fusion protein: phosphite dehydrogenase protein of SEQ ID NO: 1 (from Ralstonia sp. strain 4506), C-terminal labeled with a His tag (protein)
chain: MKPKVVLTHWVHPEIIELLSASADVIPNTTRETLPRSEVIARAKDADALMAFMPDSIDSAFLEECPKLRVIGAALKGYDNFDVNACTRHGVWLTIVPDLLTIPTAELTIGLLLGLTRHMLEGDRQIRSGHFQGWRPTLYGSGLTGKTLGIIGMGAVGRAIAQRLAGFEMNLLYCDPIPLNAEQEKAWHVQRVTLDELLEKCDYVVPMVPMAAETLHLIDATALAKMKTGSYLINACRGSVVDENAVIAALASGKLAGYAADVFEMEEWIRADRPQAIPKALLDNTAQTFFTPHLGSAVKEVRLEIERQAAMNIIQALAGEKPMGAINQPYPGVKAA
modifications: C-terminal His tag; Ralstonia sp. 4506
Take B2: in data set [1], the “temperature at which specific activity is the highest (optimum temperature)” value was “about 50 °C”. In data set [2], the “fusion protein present in the sediment (I)” value is “approximately 8.6%” and the “fusion protein present in the supernatant (S)” value is recorded as “approximately 91.4%”. The “Km relative to that of PtxDPst” value in data set [4] is reported as “about a third”. The “relative value of OD340” value in data set [3] (NaCl (50 μL of 40 mM in reaction solution), single experiments 1-5, 60 min, PtxD4506 at 45° C., PtxDPst at 30° C.) was 92.6 and 96.9 and 95.7 and 95.9 and 87.1. In data set [3], the “relative value of OD340, average” value stood at 93.6.

The values are drawn from patent US9273290B2, “Method for producing phosphite dehydrogenase protein and use thereof” (priority 2011, dated 2016).
